Assay results reported in paper PMC7367873, “Dissecting the sequence determinants for dephosphorylation by the catalytic subunits of phosphatases PP1 and PP2A” (Nature Communications, 2020).
Each block holds one molecule with its values, some of them ahead of it.

Legend:
[1] = system: GFP-14-3-3β and its binding proteins; test: GFP-14-3-3β co-IP with LC-MS/MS label-free quantification, untreated versus PP1c-treated; design: species or system human; conditions: for Difference (log2), PP1 vs untreated: 3 replicates each
GFP-14-3-3β = GFP-14-3-3β co-IP with LC-MS/MS, untreated GFP-14-3-3β versus GFP control (14-3-3 interactome); type: binding, human; conditions: for Difference (log2), untreated vs GFP: 3 replicates each
[2] = PP1 vs untreated, LFQ intensities
[3] = untreated vs GFP, LFQ intensities

B1: OASL (protein, UniProt Q15646 2-514, looked up)
2'-5'-oligoadenylate …: ALMQELYSTPASRLDSFVAQWLQPHREWKEEVLDAVRTVEEFLRQEHFQGKRGLDQDVRVLKVVKVGSFGNGTVLRSTREVELVAFLSCFHSFQEAAKHHKDVLRLIWKTMWQSQDLLDLGLEDLRMEQRVPDALVFTIQTRGTAEPITVTIVPAYRALGPSLPNSQPPPEVYVSLIKACGGPGNFCPSFSELQRNFVKHRPTKLKSLLRLVKHWYQQYVKARSPRANLPPLYALELLTIYAWEMGTEEDENFMLDEGFTTVMDLLLEYEVICIYWTKYYTLHNAIIEDCVRKQLKKERPIILDPADPTLNVAEGYRWDIVAQRASQCLKQDCCYDNRENPISSWNVKRARDIHLTVEQRGYPDFNLIVNPYEPIRKVKEKIRRTRGYSGLQRLSFQVPGSERQLLSSRCSLAKYGIFSHTHIYLLETIPSEIQVFVKNPDGGSYAYAINPNSFILGLKQQIEDQQGLPKKQQQLEFQGQVLQDWLGLGIYGIQDSDTLILSKKKGEALFPAS
- Difference (log2), PP1 vs untreated ([1]; log2 difference, pairwise comparison PP1 vs untreated, label-free quantification): 2.113
- Difference (log2), untreated vs GFP (GFP-14-3-3β; log2 difference, pairwise comparison untreated vs GFP, label-free quantification): -1.1672

B3: MYO1C (protein, UniProt O00159 1-1063, looked up)
Unconventional myosin-Ic: MALQVELVPTGEIIRVVHPHRPCKLALGSDGVRVTMESALTARDRVGVQDFVLLENFTSEAAFIENLRRRFRENLIYTYIGPVLVSVNPYRDLQIYSRQHMERYRGVSFYEVPPHLFAVADTVYRALRTERRDQAVMISGESGAGKTEATKRLLQFYAETCPAPERGGAVRDRLLQSNPVLEAFGNAKTLRNDNSSRFGKYMDVQFDFKGAPVGGHILSYLLEKSRVVHQNHGERNFHIFYQLLEGGEEETLRRLGLERNPQSYLYLVKGQCAKVSSINDKSDWKVVRKALTVIDFTEDEVEDLLSIVASVLHLGNIHFAANEESNAQVTTENQLKYLTRLLSVEGSTLREALTHRKIIAKGEELLSPLNLEQAAYARDALAKAVYSRTFTWLVGKINRSLASKDVESPSWRSTTVLGLLDIYGFEVFQHNSFEQFCINYCNEKLQQLFIELTLKSEQEEYEAEGIAWEPVQYFNNKIICDLVEEKFKGIISILDEECLRPGEATDLTFLEKLEDTVKHHPHFLTHKLADQRTRKSLGRGEFRLLHYAGEVTYSVTGFLDKNNDLLFRNLKETMCSSKNPIMSQCFDRSELSDKKRPETVATQFKMSLLQLVEILQSKEPAYVRCIKPNDAKQPGRFDEVLIRHQVKYLGLLENLRVRRAGFAYRRKYEAFLQRYKSLCPETWPTWAGRPQDGVAVLVRHLGYKPEEYKMGRTKIFIRFPKTLFATEDALEVRRQSLATKIQAAWRGFHWRQKFLRVKRSAICIQSWWRGTLGRRKAAKRKWAAQTIRRLIRGFVLRHAPRCPENAFFLDHVRTSFLLNLRRQLPQNVLDTSWPTPPPALREASELLRELCIKNMVWKYCRSISPEWKQQLQQKAVASEIFKGKKDNYPQSVPRLFISTRLGTDEISPRVLQALGSEPIQYAVPVVKYDRKGYKPRSRQLLLTPNAVVIVEDAKVKQRIDYANLTGISVSSLSDSLFVLHVQRADNKQKGDVVLQSDHVIETLTKTALSANRVNSININQGSITFAGGPGRDGTIDFTPGSELLITKAKNGHLAVVAPRLNSR
- Difference ([1]; GFP-14-3-3β co-IP, PP1vsUntrted, Perseus raw output, LFQ intensity difference): 0.4615
- Difference (log2), PP1 vs untreated [1, 2]: 0.4615 log2
- Difference (GFP-14-3-3β; UntrtedvsGFP, Perseus raw output, LFQ intensity difference): -0.5566
- Difference (log2), untreated vs GFP (GFP-14-3-3β; [3]): -0.5566 log2

B4: C14orf166 (protein, UniProt Q9Y224 1-244, looked up)
RNA transcription, …: MFRRKLTALDYHNPAGFNCKDETEFRNFIVWLEDQKIRHYKIEDRGNLRNIHSSDWPKFFEKYLRDVNCPFKIQDRQEAIDWLLGLAVRLEYGDNAEKYKDLVPDNSKTADNATKNAEPLINLDVNNPDFKAGVMALANLLQIQRHDDYLVMLKAIRILVQERLTQDAVAKANQTKEGLPVALDKHILGFDTGDAVLNEAAQILRLLHIEELRELQTKINEAIVAVQAIIADPKTDHRLGKVGR
- Difference (log2), PP1 vs untreated [1, 2]: 0.4707 log2
- Difference (log2), untreated vs GFP (GFP-14-3-3β; [3]): 1.488 log2

B7: PKP2 (protein, UniProt Q99959 1-881, looked up)
Plakophilin-2: MAAPGAPAEYGYIRTVLGQQILGQLDSSSLALPSEAKLKLAGSSGRGGQTVKSLRIQEQVQQTLARKGRSSVGNGNLHRTSSVPEYVYNLHLVENDFVGGRSPVPKTYDMLKAGTTATYEGRWGRGTAQYSSQKSVEERSLRHPLRRLEISPDSSPERAHYTHSDYQYSQRSQAGHTLHHQESRRAALLVPPRYARSEIVGVSRAGTTSRQRHFDTYHRQYQHGSVSDTVFDSIPANPALLTYPRPGTSRSMGNLLEKENYLTAGLTVGQVRPLVPLQPVTQNRASRSSWHQSSFHSTRTLREAGPSVAVDSSGRRAHLTVGQAAAGGSGNLLTERSTFTDSQLGNADMEMTLERAVSMLEADHMLPSRISAAATFIQHECFQKSEARKRVNQLRGILKLLQLLKVQNEDVQRAVCGALRNLVFEDNDNKLEVAELNGVPRLLQVLKQTRDLETKKQITDHTVNLRSRNGWPGAVAHACNPSTLGGQGGRITRSGVRDQPDQHGLLWNLSSNDKLKNLMITEALLTLTENIIIPFSGWPEGDYPKANGLLDFDIFYNVTGCLRNMSSAGADGRKAMRRCDGLIDSLVHYVRGTIADYQPDDKATENCVCILHNLSYQLEAELPEKYSQNIYIQNRNIQTDNNKSIGCFGSRSRKVKEQYQDVPMPEEKSNPKGVEWLWHSIVIRMYLSLIAKSVRNYTQEASLGALQNLTAGSGPMPTSVAQTVVQKESGLQHTRKMLHVGDPSVKKTAISLLRNLSRNLSLQNEIAKETLPDLVSIIPDTVPSTDLLIETTASACYTLNNIIQNSYQNARDLLNTGGIQKIMAISAGDAYASNKASKAASVLLYSLWAHTELHHAYKKAQFKKTDFVNSRTAKAYHSLKD
- Difference (log2), PP1 vs untreated [1, 2]: 0.4916 log2
- Difference (log2), untreated vs GFP (GFP-14-3-3β; [3]): 1.704 log2

B8: RBM39 (protein, UniProt Q14498 2-530, looked up)
RNA-binding protein 39: ADDIDIEAMLEAPYKKDENKLSSANGHEERSKKRKKSKSRSRSHERKRSKSKERKRSRDRERKKSKSRERKRSRSKERRRSRSRSRDRRFRGRYRSPYSGPKFNSAIRGKIGLPHSIKLSRRRSRSKSPFRKDKSPVREPIDNLTPEERDARTVFCMQLAARIRPRDLEEFFSTVGKVRDVRMISDRNSRRSKGIAYVEFVDVSSVPLAIGLTGQRVLGVPIIVQASQAEKNRAAAMANNLQKGSAGPMRLYVGSLHFNITEDMLRGIFEPFGRIESIQLMMDSETGRSKGYGFITFSDSECAKKALEQLNGFELAGRPMKVGHVTERTDASSASSFLDSDELERTGIDLGTTGRLQLMARLAEGTGLQIPPAAQQALQMSGSLAFGAVAEFSFVIDLQTRLSQQTEASALAAAASVQPLATQCFQLSNMFNPQTEEEVGWDTEIKDDVIEECNKHGGVIHIYVDKNSAQGNVYVKCPSIAAAIAAVNALHGRWFAGKMITAAYVPLPTYHNLFPDSMTATQLLVPSRR
- Difference (log2), PP1 vs untreated [1, 2]: 0.4791 log2
- Difference (log2), untreated vs GFP (GFP-14-3-3β; [3]): 0.5608 log2

B9: ATP5C1 (protein, UniProt P36542 26-298, looked up)
ATP synthase F(1) complex …: ATLKDITRRLKSIKNIQKITKSMKMVAAAKYARAERELKPARIYGLGSLALYEKADIKGPEDKKKHLLIGVSSDRGLCGAIHSSIAKQMKSEVATLTAAGKEVMLVGIGDKIRGILYRTHSDQFLVAFKEVGRKPPTFGDASVIALELLNSGYEFDEGSIIFNKFRSVISYKTEEKPIFSLNTVASADSMSIYDDIDADVLQNYQEYNLANIIYYSLKESTTSEQSARMTAMDNASKNASEMIDKLTLTFNRTRQAVITKELIEIISGAAALD
- Difference (log2), PP1 vs untreated [1, 2]: 0.4773 log2
- Difference (log2), untreated vs GFP (GFP-14-3-3β; [3]): 1.174 log2

Second part, led by results:

- Difference (log2), PP1 vs untreated [1, 2]: 0.4677 log2
B2: SLC25A5 (protein, UniProt P05141 1-298, looked up)
ADP/ATP translocase 2: MTDAAVSFAKDFLAGGVAAAISKTAVAPIERVKLLLQVQHASKQITADKQYKGIIDCVVRIPKEQGVLSFWRGNLANVIRYFPTQALNFAFKDKYKQIFLGGVDKRTQFWLYFAGNLASGGAAGATSLCFVYPLDFARTRLAADVGKAGAEREFRGLGDCLVKIYKSDGIKGLYQGFNVSVQGIIIYRAAYFGIYDTAKGMLPDPKNTHIVISWMIAQTVTAVAGLTSYPFDTVRRRMMMQSGRKGTDIMYTGTLDCWRKIARDEGGKAFFKGAWSNVLRGMGGAFVLVLYDEIKKYT
- Difference (log2), untreated vs GFP (GFP-14-3-3β; [3]): 0.2489 log2

- Difference (log2), PP1 vs untreated [1, 2]: 0.444 log2
B5: TUBA1C (protein, UniProt Q9BQE3 1-449, looked up)
Tubulin alpha-1C chain: MRECISIHVGQAGVQIGNACWELYCLEHGIQPDGQMPSDKTIGGGDDSFNTFFSETGAGKHVPRAVFVDLEPTVIDEVRTGTYRQLFHPEQLITGKEDAANNYARGHYTIGKEIIDLVLDRIRKLADQCTGLQGFLVFHSFGGGTGSGFTSLLMERLSVDYGKKSKLEFSIYPAPQVSTAVVEPYNSILTTHTTLEHSDCAFMVDNEAIYDICRRNLDIERPTYTNLNRLISQIVSSITASLRFDGALNVDLTEFQTNLVPYPRIHFPLATYAPVISAEKAYHEQLTVAEITNACFEPANQMVKCDPRHGKYMACCLLYRGDVVPKDVNAAIATIKTKRTIQFVDWCPTGFKVGINYQPPTVVPGGDLAKVQRAVCMLSNTTAVAEAWARLDHKFDLMYAKRAFVHWYVGEGMEEGEFSEAREDMAALEKDYEEVGADSADGEDEGEEY
- Difference (log2), untreated vs GFP (GFP-14-3-3β; [3]): 0.0777 log2

- Difference (log2), PP1 vs untreated [1, 2]: 0.4442 log2
B6: SSBP1 (protein, UniProt Q04837 17-148, looked up)
Single-stranded DNA-binding …: ESETTTSLVLERSLNRVHLLGRVGQDPVLRQVEGKNPVTIFSLATNEMWRSGDSEVYQLGDVSQKTTWHRISVFRPGLRDVAYQYVKKGSRIYLEGKIDYGEYMDKNNVRRQATTIIADNIIFLSDQTKEKE
- Difference (log2), untreated vs GFP (GFP-14-3-3β; [3]): -1.1951 log2
